Sequences and labels used below:
B1: Pistol ribozyme (parent)
chain: GGGUCGUUGUUCCAUAAUCGCGUGGAUAUGGCACGCAAGUUUCUACCGGGCACCGUAAAUGUCCGACUGGAGCCGUUCGGGCGGCUAUAAACAGACCUCAGGCCCGAAGCGUGGCGGCACCUGCCGCCGGUGGUAAAAAAGAUCGGAAGAGCACACGUCU

In the data set the parent is B1. As to the kind of experiment: aptazyme ON/OFF ratio, guanine; higher = stronger switching; co-transcriptional cleavage with and without guanine.
Consider G9A U11C C12G C13A, for which the “aptazyme ON/OFF ratio” value came out at 1.28.

U7A G9C U11A C12A C13A: the “aptazyme ON/OFF ratio” value was 1.03.

As for U7C U10C U11C C12U C13A, the “aptazyme ON/OFF ratio” value was determined as 1.25. The same measure for U7C U8A: 3.27; for U7G U10A C12G C13G: 1.2; for U8G U10C C12U C13G: 1.07. The same measure for U7C G9A U11A C12U C13A: 1.07; for G9C U10A U11C: 1.06. For U7C U8G G9C U11C C12A C13U, the “aptazyme ON/OFF ratio” value stood at 2.13. The same measure for U7G U8C U11C C12G C13G: 1.11. The same measure for U7G U8A G9U U10C: 3.13. The same measure for U7C U8G G9U U11C: 1.13; for U7A G9C U10A C12G C13U: 1.17. Regarding U7C G9U U10A U11G C12A C13U, the “aptazyme ON/OFF ratio” value is 1.18. As for U7G U8G G9C U10G U11C C12U C13G, the “aptazyme ON/OFF ratio” value came to 1.33. The same measure for U7A U8A G9U U10C C13G: 1.03; for U7C U8C U10C U11C C12A: 1.24. The same measure for U8G G9A U10G U11A C12A C13G: 1.27; for U7G U8C G9A U10G U11A: 1.07. The same measure for U7G U8G G9C U10A C13G: 1.01; for U7C U8C U10G C12A C13G: 1.08. In the case of U7C U8C G9C U11A C12U, the “aptazyme ON/OFF ratio” value is 1.14. Turning to U7G U8A G9C U10C U11A C12A C13U, the “aptazyme ON/OFF ratio” value turned out to be 1.03. The same measure for U7C U8A G9A U11A C12U: 1.25; for U7A U8C U10A U11C C13G: 1.05. The same measure for U7G U8G U11C C12U: 1.37.

Turning to U7G U8A C12U, the “aptazyme ON/OFF ratio” value worked out at 1.44. The same measure for U7A G9C U10A U11C C12U C13U: 1.12; for U7G U8G G9U U10A C12A C13A: 1.21. The same measure for U8C G9U U10G C12G: 1.6. The same measure for U7A U8A U11G C12U C13G: 1.25; for U7C U8C U10C: 1.26. Consider U7A U8A G9C U10A C12U C13G, for which the “aptazyme ON/OFF ratio” value is 1.1. The same measure for U7A U8A G9C U10A C12U C13U: 1.04; for G9A U10G U11C C13G: 1.12; for U10G U11A C12G C13U: 1.33.

On to G9C U10A U11C C12A C13U, for which the “aptazyme ON/OFF ratio” value turned out to be 1.29. Turning to U7C U8G G9A U10G C12A C13U, the “aptazyme ON/OFF ratio” value came to 1.36. The same measure for U7A G9A U10C U11A C12G: 1.27. The same measure for U7C U8G U10C U11C C12A: 1.48; for U7C U8G G9C U10A U11A C12G C13U: 1.17; for U7G U8G G9A U10C C12G C13U: 1.33. Take U7G U8G G9U C12G: the “aptazyme ON/OFF ratio” value stood at 1.18.

Take U7G U8G G9U U10C C12U C13A: the “aptazyme ON/OFF ratio” value worked out at 1.22. Consider U7A U8G G9U U11A C12A C13G, for which the “aptazyme ON/OFF ratio” value amounted to 1.38. The same measure for U7G U8C U10A C12A C13U: 1.36; for U10C U11G: 1.57. The same measure for U7C U8G U10C U11C C12G C13U: 1.24. The same measure for U7C U8C G9U U10G U11G C12G: 1.1; for G9A U10A C13G: 1.14; for U7C U8A G9U U10A C12G C13G: 1.17.

On to U7C U8A G9C U10G U11A C12A, for which the “aptazyme ON/OFF ratio” value was 1.38. The same measure for U7C U8A G9U U10A U11G C12A C13G: 1.15.

As for U8G G9U U10C U11G C12G C13A, the “aptazyme ON/OFF ratio” value came out at 1.15. Turning to U7A G9U U10C U11C C13A, the “aptazyme ON/OFF ratio” value was 1.01.

Turning to U7C U8G G9C U10C C12G C13G, the “aptazyme ON/OFF ratio” value was 1.09. The same measure for U7G G9A U10G U11C C12G C13U: 1.1; for U7C G9U U11C C12U C13A: 1.12; for U7G G9U U10C U11A C12A: 1.58. The same measure for U7C U8A G9C U11A C12G C13U: 1.14.

Take U7G G9A U11G C13A: the “aptazyme ON/OFF ratio” value turned out to be 1.11. The same measure for U7C U8A U10A C12U C13A: 1.22. The same measure for U8C G9C C12A C13U: 1.1; for U7A G9A U11C C13A: 1.07. The same measure for U7C U10C U11G C12G C13U: 1.1; for U7A U8A G9U C12U C13U: 1.22. U7G U8G G9U U10A: the “aptazyme ON/OFF ratio” value turned out to be 3.21.

On to U7A U8A G9C U10C U11C C12U, for which the “aptazyme ON/OFF ratio” value was found to be 1.02.

Regarding U8C G9U U10C U11G C12U, the “aptazyme ON/OFF ratio” value was found to be 1.22. The same measure for U7C U8A G9U U10A U11A C12A C13A: 1.13; for U7A U8A G9C U10A C13A: 1.21; for U7A U8G G9U C12G C13G: 1.4. The same measure for U7C U8G G9A U11A C13A: 1.2. The same measure for G9U U10A U11G C12A C13A: 1.14; for U7G G9U U10G U11A C12A C13G: 1.06; for U7A U8G U10A U11A: 2.54. Turning to U7A U8G U10G C12G C13U, the “aptazyme ON/OFF ratio” value amounted to 1.21. With U7C U8G U11A C12G C13G, the “aptazyme ON/OFF ratio” value was 1.11. The same measure for U7G U8G G9C C12A C13A: 1.22; for U7G U8A G9U U11C C12G C13U: 1.08. In the case of U7G U8A G9C U11A C12A C13A, the “aptazyme ON/OFF ratio” value came to 1.01.

Take U7G U8A G9C U10C U11A C12A: the “aptazyme ON/OFF ratio” value worked out at 1.03.

Consider G9C U10C C13U, for which the “aptazyme ON/OFF ratio” value came out at 1.1. The same measure for U7A U8A G9U C12G C13G: 1.27; for U7C U8G G9U U10C U11A C12U: 1.41. The same measure for U7A U8C G9U U10A U11C C12G C13U: 1.18; for U7G U8A G9A U11A C12A C13A: 1.16; for U7A U8C G9A C12A C13G: 1.14. The same measure for U7A U8G U10G U11G C12G C13U: 1.18.

In the case of U7C U8C G9U U10G U11C C12U C13G, the “aptazyme ON/OFF ratio” value is 1.09. The same measure for U7A U8G G9C U10G U11A C12G C13G: 1.39. The same measure for U7G U8G G9A U10C U11A C12A: 1.34; for G9C U10A U11G C12A C13G: 1.17; for U8A U10G C12A C13A: 1.23.

On to U8A G9C U10G U11G C12G C13U, for which the “aptazyme ON/OFF ratio” value was 1.31. The same measure for U7C U8C G9U U10G U11A C12G: 1.25; for U7G U8C G9U U10C U11G C12G C13G: 1.11; for U7G G9C U10G C13U: 1.36. On to U7A U8A G9A U10A C12U C13G, for which the “aptazyme ON/OFF ratio” value stood at 1.19. For U7G U8A U10A U11A C12A C13G, the “aptazyme ON/OFF ratio” value was found to be 1.18. The same measure for U7G U8A G9U U10A U11A C12G C13G: 1.09; for U7G U8C G9U U10C C13A: 1.37; for U7A U8A U11C C13A: 1.4.

For U7C U8C G9A U11C C12U, the “aptazyme ON/OFF ratio” value was found to be 1.66.

As for U7C U8C G9A U11C C12A, the “aptazyme ON/OFF ratio” value turned out to be 1.51. The same measure for U7G U8A G9C U10G C13A: 1.11; for U7G U8G G9U U10G U11C C12U C13U: 1.03.

With U8G G9C U10A U11G C12A C13G, the “aptazyme ON/OFF ratio” value came to 1.14.

With U7A U8A G9U U10A U11C C12U C13G, the “aptazyme ON/OFF ratio” value worked out at 1.05. The same measure for U10C U11G C12G C13G: 1.23; for U8A G9A U10C U11A C12U: 1.19; for U7A U8G U10C U11C C12U C13G: 1.18.

As for U7A U8G U10C U11A C12G, the “aptazyme ON/OFF ratio” value is 1.48. The same measure for U7C U8A G9A U10C U11G C13G: 1.13; for U7C G9C U10G U11C C12U C13G: 1.05; for U8G G9A U11G C12U C13G: 1.16. The same measure for U7G G9A U10C U11A C12G C13G: 1.07; for U7G U8A G9U U10C U11C C12U C13A: 1.03; for G9U U10G U11A C13U: 1.08. The same measure for U7G U8C G9C U10G U11C C12A: 1.36; for U7C G9A U10G U11G C13G: 1.05; for U7A U8C U10A U11C C12U C13A: 1.07. For U7G U8A G9U U10A U11C C13G, the “aptazyme ON/OFF ratio” value is 1.02. In the case of U7A U8C G9U U11A C12G C13G, the “aptazyme ON/OFF ratio” value is 1.22.

As to U7A U8C G9C C12A, the “aptazyme ON/OFF ratio” value worked out at 1.12. The same measure for U7G U8G G9C U10C C13U: 1.59; for U8G G9A U10A U11C C12U: 1.04. The same measure for U7C U8A G9C U10C U11A C12A C13A: 1.07; for U7A U8G G9C U10G: 1.46. The same measure for U11G C12G C13A: 1.2.

For the variant U8C U11C C12G C13U, the “aptazyme ON/OFF ratio” value was determined as 1.36.

As for U8A G9A U11A C13G, the “aptazyme ON/OFF ratio” value came to 1.03. The same measure for U7A U10G U11A C12U C13U: 1.07; for U7G U8A G9C C12G C13U: 1.06; for U7G U8G G9A U10A U11G C12U C13U: 1.35.

For U7G U8G G9U U10C U11C C12U C13G, the “aptazyme ON/OFF ratio” value was 1.41. The same measure for U7G U8A G9A U10G U11G C12A C13G: 1.14.

Turning to U7C U8G G9C U10G U11C C13U, the “aptazyme ON/OFF ratio” value came to 1.07. The same measure for U8G G9U U10A U11A C12G C13A: 1.2; for U7A U8G G9A U10G C12G C13U: 1.33; for U10C U11C C12A C13U: 1.08.

Turning to U7C U8G G9U U10G C12U C13G, the “aptazyme ON/OFF ratio” value stood at 1.1.

For U8A G9A C12G C13U, the “aptazyme ON/OFF ratio” value was 1.18. For the variant U8C G9U U10C U11C C12U, the “aptazyme ON/OFF ratio” value was determined as 1.06.

As to U7A U8A G9A U10A U11G, the “aptazyme ON/OFF ratio” value is 1.29.

For U7A U8C U10C C12U C13A, the “aptazyme ON/OFF ratio” value was 1.17. As for U7G U8A U10G U11C C12A, the “aptazyme ON/OFF ratio” value was 1.48. Consider U8A U10C U11A C12A C13U, for which the “aptazyme ON/OFF ratio” value was 1.3.

Consider U7A U8G G9C C12U, for which the “aptazyme ON/OFF ratio” value was 1.88.

Turning to U7G U8G G9C U10A C12A C13G, the “aptazyme ON/OFF ratio” value was 1.04. The same measure for U7G U10G C12A: 1.22; for U7G U8G G9C U10C U11G C12A C13U: 1.3. The same measure for U7G U10A U11A C13G: 1.11; for U7G U10A U11A C13A: 1.14; for U8A G9A U10A U11G C12G C13G: 1.4. The same measure for U7C U8C G9A U10A C12U C13G: 1.19; for U7A U8G G9U U10A U11A C12U C13G: 1.24.

As to U7G U10G U11A C12G C13A, the “aptazyme ON/OFF ratio” value was 1.11. The same measure for U7G U8A G9C U11C C12A C13G: 1.04; for U7A G9C U11G C12U C13G: 1.36; for U7C U8A G9A U11A C12U C13A: 1.32. The same measure for G9C U10A C13A: 1.3; for U7C U8A G9A U10C U11A: 1.23; for U7C U8C C13G: 1.17. The same measure for U7C G9U U10A U11C C12G C13A: 1.16; for U7C U8C G9U U10A U11A C12A C13U: 1.1; for U7C U8C G9U U10A U11A C12A C13A: 1.12.

The values are drawn from the RNAGym collection of RNA variant scans (doi:10.1021/acssynbio.7b00057).
